# Assays:
# [1] = biological target: bovine pancreatic RNase A, biotinylated (bovine) (UniProt P61823); assay: BLI
# [2] = biological target: CdiI^Ykris-His6, immunity protein of Yersinia kristensenii ATCC 33638 (Yersinia kristensenii ATCC 33638); assay: BLI
# UniProt P61823, sequence (P61823 27-150): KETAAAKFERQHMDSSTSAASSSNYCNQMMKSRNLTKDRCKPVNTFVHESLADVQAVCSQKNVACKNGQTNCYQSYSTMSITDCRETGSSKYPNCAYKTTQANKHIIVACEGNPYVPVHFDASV
Kd [1],Substance,Kd [2]
1950 nM,"CdiI^Ykris-His6, immunity protein of Yersinia kristensenii ATCC 33638 (natural protein)",–
–,"CdiA-CT^Ykris, C-terminal toxin region of CdiA from Yersinia kristensenii ATCC 33638 (domain or fragment)",40.9 nM
